Here are results for two molecules from PMC4508888.

Some targets named below: EGFP-Myo1b (rat) (UniProt Q05096); EGFP-Myo1b motor (rat); EGFP-Myo1b-Tail (rat); Flag-EphB2-KD (UniProt P54763).
Holding throughout (test): co-IP

Molecule “Flag-EphB2 (from UniProt P54763 19-986) (receptor)” yielded a percent of Flag-EphB2 co-precipitated with EGFP-Myo1b after genistein treatment with EGFP-Myo1b (rat) of 29%. Besides, the percent of Flag-EphB2 pulled down against EGFP-Myo1b in the test with EGFP-Myo1b motor (rat) was determined as 50%. Also, the fold of Flag-EphB2 pulled down against EGFP-Myo1b in the test with EGFP-Myo1b-Tail (rat) is > 2 fold.

B1: EGFP-Myo1b (natural protein)
chain: MAKKEVKSSLLDNMIGVGDTVLLEPLNEETFIDNLKKRFDHNEIYTYIGSVVISVNPYRSLPIYSPEKVEDYRNRNFYELSPHIFALSDEAYRSLRDQDKDQCILITGESGAGKTEASKLVMSYVAAVCGKGAEVNQVKEQLLQSTPVLEAFGNAKTVRNDNSSRFGKYMDIEFDFKGDPLGGVISNYLLEKSRVVKQPRGERNFHVFYQLLSGASEELLHKLKLERDFSRYNYLSLDSAKVNGVDDAANFRTVRNAMQIVGFSDPEAESVLEVVAAVLKLGNIEFKPESRMNGLDESKIKDKNELKEICELTSIDQVVLERAFSFRTVEAKQEKVSTTLNVAQAYYARDALAKNLYSRLFSWLVNRINESIKAQTKVRKKVMGVLDIYGFEIFEDNSFEQFIINYCNEKLQQIFIELTLKEEQEEYIREDIEWTHIDYFNNAIICDLIENNTNGILAMLDEECLRPGTVTDETFLEKLNQVCATHQHFESRMSKCSRFLNDTTLPHSCFRIQHYAGKVLYQVEGFVDKNNDLLYRDLSQAMWKAGHALIKSLFPEGNPAKVNLKRPPTAGSQFKASVATLMKNLQTKNPNYIRCIKPNDKKAAHIFSESLVCHQIRYLGLLENVRVRRAGYAFRQAYEPCLERYKMLCKQTWPHWKGPARSGVEVLFNELEIPVEEYSFGRSKIFIRNPRTLFQLEDLRKQRLEDLATLIQKIYRGWKCRTHFLLMKRSQVVIAAWYRRYAQQKRYQQIKSSALVIQSYIRGWKARKILRELKHQKRCKEAATTIAAYWHGTQARKERRRLKDEARNKHAIAVIWAFWLGSKARRELKRLKEEARRKHAVAVIWAYWLGLKVRREYRKFFRANAGKKIYEFTLQRIVQKYLLEMKNKMPSLSPIDKNWPSRPYLFLDSTHKELKRIFHLWRCKKYRDQFTDQQKLIYEEKLEASELFKDKKALYPSSVGQPFQGAYLEINKNPKYKKLKDAIEEKIIIAEVVNKINRANGKSTSRIFLLTNNNLLLADQKSGQIKSEVPLVDVTKVSMSSQNDGFFAVHLKEGSEAASKGDFLFSSDHLIEMATKLYRTTLSQTKQKLNIEISDEFLVQFRQDKVCVKFIQGNQKNGSVPTCKRKNNRLLEVAVP
In the case of B1, in the test with Flag-EphB2-KD, the percent of EGFP-Myo1b co-precipitated against Flag-EphB2 came to 16%.
